Experimental findings from paper PMC5760045, “The centrosomin CM2 domain is a multi-functional binding domain with distinct cell cycle roles” (PLoS ONE, 2018) are described below.

Data set [1] has as its target CM2 Δ1130–1148 (Drosophila melanogaster) (UniProt P54623). Kind of data set: SEC-MALS; KW-802.5 size exclusion column with inline MALS and refractive index detectors; 50mM HEPES pH 7.0, 200mM NaCl, 1mM DTT; dimer constructs also at submicromolar concentrations (1μM and 9μM for aa1074-1148). For orientation: In gel filtration, larger molecules generally elute earlier.
The target of data set [2] is centrosomin CM2 aa1090-1148 (monomeric CM2) (Drosophila melanogaster) (UniProt P54623). Put plainly: NMR titration; 2D [15N,1H]-HSQC of 100μM 15N labeled monomeric CM2 with 18μM CaM; 2mM EGTA added in place of 2mM CaCl2; 300K; 20mM PIPES pH 6.8, 140mM NaCl; apparent affinity.
Data set [3] concerns the molecule itself. Put plainly: SEC-MALS; KW-802.5 size exclusion column with inline MALS and refractive index detectors; 50mM HEPES pH 7.0, 200mM NaCl, 1mM DTT; dimer constructs also at submicromolar concentrations (1μM and 9μM for aa1074-1148).
Data set [4] addresses T1, GB1-CNNLZ (CNN aa490-567 fused to the GB1 solubility tag) (Drosophila melanogaster, UniProt P54623-2 490-567).
T1 construct: centrosomin (CNN), Drosophila melanogaster, residues 490-567 with the leucine zipper, the same fragment as in the crystal structure 5MWE; The introduction gives aa490-544 for CNNLZ of Feng et al; the results give aa490-567 for the fragment used here; also called GB1-CnnMD; source: E. coli, purified (NiNTA, size exclusion)
T1 sequence (looked up): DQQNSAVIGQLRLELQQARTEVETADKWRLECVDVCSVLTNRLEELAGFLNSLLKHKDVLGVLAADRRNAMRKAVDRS
Kind of data set: NMR titration; 2D [15N,1H]-HSQC of 100μM 15N labeled CM2 with unlabeled partner added; 300K; 20mM PIPES pH 6.8, 140mM NaCl, 0.01% NaN3, 5% D2O, 2mM CaCl2; 800 MHz. Conditions: both partners purified.

The term stoichiometry N denotes a count of units in the complex or per binding partner.

The molecule “CM2 Δ1130–1148 (from UniProt P54623-2 1-1129) (domain or fragment)” gave a stoichiometry N in data set [1] of 2. As to “calmodulin (from UniProt P62152 1-149) (natural protein)”, the reduction of the apparent affinity without calcium (2mM EGTA) against 2mM CaCl2 in data set [2] was in the range of 50 to 70%.

B1: centrosomin CM2 aa1074-1148 (minimal dimeric CM2) (domain or fragment, Drosophila melanogaster, UniProt P54623-2 1074-1148, looked up)
chain: VATGAATVHDCAKVDLENAELRRKLIRTKRAFEDTYEKLRMANKAKAQVEKDIKNQILKTHNVLRNVRSNMENEL
notes: centrosomin (CNN), Drosophila melanogaster, residues 1074-1148, from cDNA LD19135; 15N-labelled in the NMR experiments; also called CM2 dimer; minimal dimer construct; source: E. coli, purified (NiNTA, cation exchange; non-labeled protein also size exclusion)
For B1, in data set [3], the “stoichiometry N” value is 2.

B2: centrosomin CM2 aa1090-1148 (monomeric CM2) (domain or fragment, Drosophila melanogaster, UniProt P54623-2 1090-1148, looked up)
chain: ENAELRRKLIRTKRAFEDTYEKLRMANKAKAQVEKDIKNQILKTHNVLRNVRSNMENEL
notes: centrosomin (CNN), Drosophila melanogaster, residues 1090-1148 (start of the predicted coiled coil to the C-terminus), from cDNA LD19135; 15N-labelled (or 13C/15N) in the NMR experiments; also called CM2 monomer; truncated CM2; source: E. coli, purified (NiNTA, cation exchange; non-labeled protein also size exclusion)
Consider B2, for which the binding result in data set [4] was “binds”.

B3: centrosomin CM2 aa1064-1148 (longer dimeric CM2) (domain or fragment, Drosophila melanogaster, UniProt P54623-2 1064-1148, looked up)
chain: ESTSPDSKSNVATGAATVHDCAKVDLENAELRRKLIRTKRAFEDTYEKLRMANKAKAQVEKDIKNQILKTHNVLRNVRSNMENEL
notes: centrosomin (CNN), Drosophila melanogaster, residues 1064-1148, from cDNA LD19135; source: E. coli, purified (NiNTA, cation exchange, size exclusion)
Take B3: the “stoichiometry N” value in data set [3] came to 2.
